Blank lines part the entries; values can stand above or below the binder they belong to.
Tests used:
[1] = biological target: catalytic subunit of protein phosphatase-1, γ1-isoform (PP1γ1), produced in Escherichia coli (UniProt P36873); experiment: co-crystal structure at 3.0 Å, method of Lee and Richards
[2] = biological target: T1, GST-M110-(M1-E309), GST tag not cleaved
T1 chain: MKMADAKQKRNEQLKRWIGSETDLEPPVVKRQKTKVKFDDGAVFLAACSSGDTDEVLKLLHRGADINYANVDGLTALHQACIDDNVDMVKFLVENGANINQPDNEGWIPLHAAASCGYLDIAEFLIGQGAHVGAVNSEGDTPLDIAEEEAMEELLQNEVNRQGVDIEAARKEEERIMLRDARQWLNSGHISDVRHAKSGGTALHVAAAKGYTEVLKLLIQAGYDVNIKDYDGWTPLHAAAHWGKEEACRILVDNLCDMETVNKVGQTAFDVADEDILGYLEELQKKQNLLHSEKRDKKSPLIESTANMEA

Sequence of catalytic subunit of protein phosphatase-1, γ1-isoform (PP1γ1), produced in Escherichia coli (P36873 whole entry, canonical isoform): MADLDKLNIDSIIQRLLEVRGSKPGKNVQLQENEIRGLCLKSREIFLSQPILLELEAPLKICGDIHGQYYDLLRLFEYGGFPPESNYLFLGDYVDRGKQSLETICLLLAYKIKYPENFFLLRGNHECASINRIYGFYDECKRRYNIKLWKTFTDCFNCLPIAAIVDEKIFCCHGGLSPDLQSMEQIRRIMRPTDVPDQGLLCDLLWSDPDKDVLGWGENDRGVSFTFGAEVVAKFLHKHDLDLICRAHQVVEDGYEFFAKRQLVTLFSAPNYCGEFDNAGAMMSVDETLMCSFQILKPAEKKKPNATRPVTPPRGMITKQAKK

total solvent accessible surface area buried on formation of the complex [1]: 980 Å2
Binder: GRRVSFADNFGFN [GM-(G63-N75) synthetic peptide]

B1: β isoform of PP1c released from rabbit skeletal muscle PP1G (protein)
chain: ADGELNVDSLITRLLEVRGCRPGKIVQMTEAEVRGLCIKSREIFLSQPILLELEAPLKICGDIHGQYTDLLRLFEYGGFPPEANYLFLGDYVDRGKQSLETICLLLAYKIKYPENFFLLRGNHECASINRIYGFYDECKRRFNIKLWKTFTDCFNCLPIAAIVDEKIFCCHGGLSPDLQSMEQIRRIMRPTDVPDTGLLCDLLWSDPDKDVQGWGENDRGVSFTFGADVVSKFLNRHDLDLICRAHQVVEDGYEFFAKRQLVTLFSAPNYCGEFDNAGGMMSVDETLMCSFQILKPSEKKAKYQYGGLNSGRPVTPPRTANPPKKR
concentration needed to modulate the substrate specificity of PP1c, relative to the cleaved fragment [2]: If the GST tags were not cleaved with thrombin, a 10-fold higher concentration of M110-(M1-E309) was needed to modulate the substrate specificity of PP1c
